Drawing on the supplement of paper PMC10567573, this text covers protein stability index for 72 sequences.

± gives the standard deviation.

This series can be described thus: protein stability index of a GFP-peptide fusion (GPS, HEK-293T) (PSI 1-6); higher = more stable.
[1] abbreviates: treatment: DMSO, c terminus: a fixed tail appended.
[2] abbreviates: treatment: MLN4924 1 uM, 8 h, c terminus: a fixed tail appended.
The mark [3] stands for this setting: treatment: DMSO, c terminus: native.
The mark [4] stands for this setting: treatment: MLN4924 1 uM, 8 h, c terminus: native.
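Also: 24-mer peptide tiles fused after GFP, lentivirally expressed, FACS-sorted into six equal bins by GFP/DsRed ratio, decoded by Illumina sequencing, PSI is the read-weighted mean bin number.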

AAHLALLLLCGTISLRVYRKVLQA [RTN2]: the protein stability index under setting [1] came to 2.49 ± 0.33 and the protein stability index under setting [2] turned out to be 2.51 ± 0.73.
For the sequence AALRLHRLLRDSEAFCHANCSGPA [P3H4], the protein stability index reads like this: under setting [1], 2.1 ± 0.1; under setting [2], 2.27 ± 0.27.
AALSEENTGKTYFFVANKYWRYDE [MMP1] returned a protein stability index under setting [1] of 2.49 ± 0.37 and a protein stability index under setting [2] of 2.21 ± 0.18.
Take AALTEALQRQAEQNPTASYYNVVL [FCHO1]: the protein stability index reads like this: under setting [1], 2.3 ± 0.33; under setting [2], 2.21 ± 0.33.
As for AAVLQYASLVGQKCSERMLLFRN [ATE1], the protein stability index is, setting by setting: under setting [3], 2.38 ± 0.043; under setting [4], 2.27 ± 0.33.
On to ADAISENYRIMSYFKEAELKDLLL [WEE1], for which the protein stability index under setting [1] amounted to 2.61 ± 0.22 and the protein stability index under setting [2] worked out at 2.72 ± 0.54.
As to ADGAWVVKMFYSFQDKRNLYLIME [STK38L], the protein stability index by setting is: under setting [1], 3.11 ± 1; under setting [2], 2.99 ± 0.79.
Turning to ADKYALERLKVMCEEALCSNLSVE [SPOPL], the protein stability index reads like this: under setting [1], 3.56 ± 0.18; under setting [2], 3.62 ± 0.18.
In the same order, the values of ADQRSRMLSIFYFAIPVGSGLGYI [SPNS1] are 2.44 ± 0.52 and 2.26 ± 0.31.
With ADVWSLGVMLYTLLVGRYPFHDSD [TRIB1], the protein stability index under setting [1] came to 3.15 ± 0.26 and the protein stability index under setting [2] worked out at 2.58 ± 0.26.
Taken in the same sequence, the figures for AEFEKLSDQVKISEEALRADGFGD [SAT2] were 5.33 ± 0.11 and 5.45 ± 0.15.
As for AEGSNSESSDDDSEEAPSTSGMGF [SDE2], the protein stability index is 5.37 ± 0.15 under setting [1] and 5.26 ± 0.36 under setting [2].
For the sequence AEIPDGPPVVAHYDMSDTNSDPEV [C18orf25], the protein stability index is, setting by setting: under setting [1], 5.65 ± 0.21; under setting [2], 5.48 ± 0.23.
In the case of AEPGFEPADCKRKEEAGAPGGGAG [CEBPB], the protein stability index reads like this: under setting [1], 5.48 ± 0.47; under setting [2], 5.56 ± 0.15.
In the same order, the values of AESRGHSKGWGRNYASIIRRDCMW [MYCL] are 2.23 ± 0.2 and 2.61 ± 0.39.
AFMLFRKRLGSMILAFRPRPNYF [GDAP1] registered a protein stability index under setting [3] of 2.5 ± 0.53 and a protein stability index under setting [4] of 2.12 ± 0.47.
As to AFSSRLGGSRGAPGLLMAVGQDLY [DCAF4], the protein stability index is 2.19 ± 0.48 under setting [1] and 2.15 ± 0.38 under setting [2].
In the same order, the values of AGAFGYFQQDTKGLVDFRDVALAL [LPCAT4] are 1.98 ± 0.18 and 2.12 ± 0.18.
Taken in the same sequence, the figures for AGAPPPSGSAVSTAPQQKPIGKIS [SRPK2] were 5.01 ± 0.26 and 5.04 ± 0.24.
Taken in the same sequence, the figures for AGLAELGHRLAQKLQGLENWGQDP [PBXIP1] were 2.79 ± 0.17 and 2.85 ± 0.33.
As for AIIASLTFLYTLLREVIHPLATSH [STEAP1], the protein stability index under setting [1] stood at 3.25 ± 0.34 and the protein stability index under setting [2] was 2.89 ± 0.39.
In the same order, the values of AKLVDLPCVIESLRTLDKKTFYKT [TAF7L] are 2.52 ± 0.47 and 2.18 ± 0.42.
Taken in the same sequence, the figures for ALARNLLVDGETGESFPAQVPSGE [NFE2L1] were 4.79 ± 0.45 and 4.5 ± 0.61.
ALCENFPEEMATYLRYVRRLDFFE [CSNK1G1] yielded a protein stability index under setting [1] of 2.21 ± 0.73 and a protein stability index under setting [2] of 2.26 ± 0.26.
With ALQVPRGKEDSTLQLLREENRALQ [CBY2], the protein stability index was 4.13 ± 0.25 under setting [1] and 4.23 ± 0.084 under setting [2].
As for ALRLAELARRRRRRQARREAEADK [NOP53], the protein stability index was 4.12 ± 0.21 under setting [1] and 4.37 ± 0.82 under setting [2].
Regarding ALVGDEVELPCRISPGKNATGMEV [MOG], the protein stability index was found to be 4.03 ± 0.22 under setting [1] and 4.23 ± 0.26 under setting [2].
AMEPDRKAAVSHWQQQSYLDSGIH [CTNNB1]: the protein stability index runs as follows: under setting [1], 3.91 ± 0.31; under setting [2], 3.95 ± 0.32.
Regarding ANDYKDTLGKGSSLSAPSKKTSR [KRT71], the protein stability index under setting [3] was 5.26 ± 0.32 and the protein stability index under setting [4] stood at 5.12 ± 0.47.
Regarding APATTSSWEVVRNPLIASSFSLVK [C22orf31], the protein stability index reads like this: under setting [1], 2.91 ± 0.24; under setting [2], 2.96 ± 0.1.
Sequence APVTFRHHRYDDLVRTLYKVQNEC [CPN1] came in with a protein stability index under setting [1] of 2.62 ± 0.065 and a protein stability index under setting [2] of 2.83 ± 0.12.
Take AQDLGELLATAEQEQLSLSQRQAK [LRRC45]: the protein stability index was 5.25 ± 0.3 under setting [1] and 5.34 ± 0.058 under setting [2].
For the sequence AQPPDYTFPSGSGAHFPQVPGGAV [PI4K2A], the protein stability index was 3.93 ± 0.19 under setting [1] and 4.01 ± 0.12 under setting [2].
For the sequence ARERAKLQIELGKCKAEHDQLLLN [LMNB1], the protein stability index is, setting by setting: under setting [1], 3.47 ± 0.098; under setting [2], 3.14 ± 0.1.
In the same order, the values of ARKARKYEIPHFRLKKVENIKIWL [PHTF1] are 2.09 ± 0.83 and 1.96 ± 0.46.
On to ARMLSSNERDSSEPGNFIPLFTPQ [CDC25A], for which the protein stability index is 3.85 ± 0.25 under setting [1] and 3.96 ± 0.4 under setting [2].
For the sequence ASAPTYPSLYSSYHQGCLVNPTGN [NANOGP8], the protein stability index is, setting by setting: under setting [1], 3.29 ± 0.19; under setting [2], 3.44 ± 0.17.
As for ASASCSHWRECLFYPALWPQLRIC [FBXO33], the protein stability index under setting [1] worked out at 2.44 ± 0.53 and the protein stability index under setting [2] came to 2.23 ± 0.39.
Taken in the same sequence, the figures for ASHCLMNHPDLAKDLTEYLKVRSH [PDS5B] were 3.05 ± 0.27 and 3.01 ± 0.18.
As for ATKITLSAIYKWITDNFCYFRHAD [FOXJ1], the protein stability index came out at 3 ± 0.21 under setting [1] and 2.77 ± 0.49 under setting [2].
As to AVNNGDFEAYAKICDPGLTSFEPE [CAMK2B], the protein stability index under setting [1] is 4.35 ± 0.27 and the protein stability index under setting [2] came to 4.38 ± 0.14.
For the sequence AVVHEYALAVCLSFFYPVLFVLFM [SOAT1], the protein stability index under setting [1] amounted to 3.29 ± 0.42 and the protein stability index under setting [2] stood at 3.02 ± 0.21.
With AVVNELIDYGANVNQPNNNGFTPL [ANKRD44], the protein stability index runs as follows: under setting [1], 3.05 ± 0.2; under setting [2], 3.21 ± 0.17.
In the same order, the values of AVYDGSSSVEDLKAKFCSTVANDV [NETO1] are 4.03 ± 0.19 and 4.17 ± 0.31.
As for AWQYGPCTGITRLQRWCRAKHMGL [POLD4], the protein stability index by setting is: under setting [1], 2.15 ± 0.12; under setting [2], 2.3 ± 0.42.
As to AYCLDQGAEDGDRAILYPCHGMSS [GALNT9], the protein stability index was determined as 3.67 ± 0.29 under setting [1] and 3.69 ± 0.11 under setting [2].
Sequence AYFAGNQKQLEQTLQQFNIKLRPP [ARFIP2] returned a protein stability index under setting [1] of 2.63 ± 0.16 and a protein stability index under setting [2] of 2.76 ± 0.29.
Sequence AYRCGSGMQMAEDSKSLKTHQTQP [NET1] came in with a protein stability index under setting [1] of 3.94 ± 0.16 and a protein stability index under setting [2] of 3.22 ± 0.25.
For the sequence CATTNASGNSCGPCGTSQKGCCN [KRT34], the protein stability index is, setting by setting: under setting [3], 3.78 ± 0.17; under setting [4], 3.66 ± 0.31.
CAVLLSAVQAQAGWLQHDFGHLSV [FADS1]: the protein stability index was found to be 3.25 ± 0.5 under setting [1] and 3.3 ± 0.65 under setting [2].
With CCHRSQKGFPGCKLGLHDNHWVPA [FBXO34], the protein stability index was 2.2 ± 0.39 under setting [1] and 2.16 ± 0.34 under setting [2].
Take CFRMQINHAIDIICGFLKERCFRG [OAS1]: the protein stability index by setting is: under setting [1], 2.44 ± 0.66; under setting [2], 2.61 ± 0.36.
For CFYRGYTSGVAAVQDWYHFHYVDI [SCNN1D], the protein stability index runs as follows: under setting [1], 3.06 ± 0.86; under setting [2], 2.92 ± 0.75.
CGADVNVRDSDDNSPLHIAALNNH [FEM1C]: the protein stability index under setting [1] came to 2.9 ± 0.34 and the protein stability index under setting [2] was 2.83 ± 0.24.
CGGSGGGGGGGGGGGGCSSGSSYC [LURAP1L]: the protein stability index reads like this: under setting [1], 3.28 ± 0.46; under setting [2], 3.22 ± 0.22.
In the case of CIGLQNLKLLDELPIAKVMKDYLK [ASB7], the protein stability index by setting is: under setting [1], 2.11 ± 0.28; under setting [2], 2.27 ± 0.39.
For CIHTGLSQYIAVEAAEGRNKNEVF [FBXO3], the protein stability index was 3.38 ± 0.49 under setting [1] and 3.48 ± 0.19 under setting [2].
Taken in the same sequence, the figures for CLLQPPSCPNGMSAENGLEKSGFS [DLC1] were 3.99 ± 0.14 and 3.44 ± 0.8.
CLPLTFCIHTGLSQYIAVEAAEGR [FBXO3] had a protein stability index under setting [1] of 2.96 ± 0.72 and a protein stability index under setting [2] of 2.4 ± 0.93.
As for CLTLTPRPATEAELLTCHSAEYVG [HDAC6], the protein stability index was 3.48 ± 0.16 under setting [1] and 3.43 ± 0.16 under setting [2].
Take CNVDLLKIIQLGLTFMNEQGEYPP [CNOT7]: the protein stability index runs as follows: under setting [1], 2.96 ± 1.3; under setting [2], 2.48 ± 0.18.
As to CPIDQHHRNQCQYCRLKKCLKVGM [NR2F2], the protein stability index is, setting by setting: under setting [1], 2.97 ± 0.038; under setting [2], 3.36 ± 0.36.
On to CSISKMEEEAGQTSIEPSKSSIIP [ZER1], for which the protein stability index came to 4.59 ± 0.28 under setting [1] and 4.53 ± 0.2 under setting [2].
For the sequence CSSRPLQKGSHPMCKEHEDEKINI [TRIM63], the protein stability index turned out to be 4.81 ± 0.093 under setting [1] and 4.84 ± 0.24 under setting [2].
Regarding CTSRIFVQKSIYSEFLKRFVEATR [ALDH8A1], the protein stability index is, setting by setting: under setting [1], 2.36 ± 0.52; under setting [2], 2.34 ± 0.5.
CYTFSVLITFDNKAHSGRIPISLE [MCOLN1] registered a protein stability index under setting [1] of 3.58 ± 0.41 and a protein stability index under setting [2] of 3.3 ± 0.62.
For the sequence DAIGEGKVTLRIRNVRFSDEGGFT [MOG], the protein stability index is, setting by setting: under setting [1], 2.88 ± 0.35; under setting [2], 2.84 ± 0.44.
With DDILYHVKGMQRIVNQWSEKFSDE [DLC1], the protein stability index by setting is: under setting [1], 3.52 ± 0.14; under setting [2], 3.75 ± 0.28.
As to DDKMVRFWRIDEDYPVQVAPLSNG [WSB1], the protein stability index turned out to be 3.37 ± 0.34 under setting [1] and 3.45 ± 0.33 under setting [2].
Turning to DDLQQLQLFTEYGRLAMDEIFQKP [ATL3], the protein stability index was 3.31 ± 0.26 under setting [1] and 3.57 ± 0.21 under setting [2].
With DEEQQVLLSRLEEEEQDILQRLRE [TRIM39], the protein stability index is, setting by setting: under setting [1], 5.27 ± 0.098; under setting [2], 5.28 ± 0.33.
For the sequence DESAIDFSAYIDSMAAVPTLELCH [CEBPD], the protein stability index runs as follows: under setting [1], 3.17 ± 0.26; under setting [2], 3.31 ± 0.17.
